These results are taken from the RNAGym collection of RNA variant scans (doi:10.1073/pnas.2313332121).

The labels stand for the following.
B1: TPR t1 (parent)
chain: GACCAAUCUGCCCUCAGAGCUCGAGAACAUCUUCGGAUGCAGAGGAGGCAGGCUUCGGUGGCGCGAUAGCGCCAACGUCCUCAACCUCCAAUGCAUCCCACCACAUGAUGAUGCCUGAAGAGCCUUGGUUUUUUG

Variants of B1 are the subject of the data set. The experiment in a line: polymerase ribozyme fitness, log enrichment relative to wild type (log ratio); higher = more active; in vitro selection for triplet polymerase activity. A digest of the protocol:
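Fitness is a logarithmic measure of how a genotype enriched relative to the wild type, with replicate averages weighted by inverse variance. The logarithm uses base 2, and enrichment came from Illumina sequencing of input and output libraries. Those libraries were PCR-built, transcribed mutants of each subunit of a heterodimeric triplet polymerase ribozyme, passed through one triplicate in vitro selection round that included frozen incubation at −7 °C, gel excision of extended constructs and streptavidin-bead capture. Genotypes were kept only if they had ≥10 input reads and ≥1 read per output.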
Turning to A118C, the “polymerase ribozyme fitness (log ratio)” value was -2.45.

As to U7C C11G C62A U96G, the “polymerase ribozyme fitness (log ratio)” value was -1.18.

In the case of A6C C73G, the “polymerase ribozyme fitness (log ratio)” value is -0.957.

As to C70U G113U, the “polymerase ribozyme fitness (log ratio)” value is -2.81.

As to G110A G113A, the “polymerase ribozyme fitness (log ratio)” value is -3.95.

For the variant A26C C88U, the “polymerase ribozyme fitness (log ratio)” value was -5.08.

For the variant C11A A41C G58A U96A, the “polymerase ribozyme fitness (log ratio)” value was -3.23.

Turning to C34U G60U C99U, the “polymerase ribozyme fitness (log ratio)” value is -3.7.

On to G61U U81G U129A, for which the “polymerase ribozyme fitness (log ratio)” value was -4.47.

Take G61C C82U: the “polymerase ribozyme fitness (log ratio)” value was -1.83.

For the variant C22G G47C U59C U92G C97A A111G, the “polymerase ribozyme fitness (log ratio)” value is -6.83.

G10U C28G A46U G52A G63A U87C: the “polymerase ribozyme fitness (log ratio)” value was -5.27.

Turning to U9C C13U C53A U87C A100U, the “polymerase ribozyme fitness (log ratio)” value was -0.242.

Take C49A G77C C88A: the “polymerase ribozyme fitness (log ratio)” value is -1.31.

As to C22A A26G G39A G63C C99A C115G, the “polymerase ribozyme fitness (log ratio)” value is -4.89.

Consider G61U G113C U130G G135U, for which the “polymerase ribozyme fitness (log ratio)” value was -3.21.

Regarding A18C A37U G48A, the “polymerase ribozyme fitness (log ratio)” value was -3.12.

As for C53U A90U, the “polymerase ribozyme fitness (log ratio)” value is -0.929.

For the variant A5C A18G G63C C88A C101A G120U, the “polymerase ribozyme fitness (log ratio)” value was -4.57.

For C72A C79A C94A G127C, the “polymerase ribozyme fitness (log ratio)” value was -2.85.

On to C62U U125G G127C, for which the “polymerase ribozyme fitness (log ratio)” value was -1.39.

Turning to C12U C72U U130G, the “polymerase ribozyme fitness (log ratio)” value is -0.295.

For the variant C72U C98A, the “polymerase ribozyme fitness (log ratio)” value is -4.69.

Take C12U G122A: the “polymerase ribozyme fitness (log ratio)” value is -0.00508.

Turning to U7A U32C, the “polymerase ribozyme fitness (log ratio)” value was found to be 0.304.

As to C8U C34U G35A C101A C114U, the “polymerase ribozyme fitness (log ratio)” value was -6.15.

In the case of C4A C123A, the “polymerase ribozyme fitness (log ratio)” value was -0.283.

C8G C40A C53G G63U U109G: the “polymerase ribozyme fitness (log ratio)” value is -7.06.

C73G C80A: the “polymerase ribozyme fitness (log ratio)” value is -4.88.

In the case of G48U G52U C98U G117U, the “polymerase ribozyme fitness (log ratio)” value is -6.54.

As to A27U G39U, the “polymerase ribozyme fitness (log ratio)” value is -4.25.

In the case of G110C U125C, the “polymerase ribozyme fitness (log ratio)” value was -2.68.

Regarding G63A C70G C73A, the “polymerase ribozyme fitness (log ratio)” value was -5.82.

As for C13A C89G C97U, the “polymerase ribozyme fitness (log ratio)” value is -3.27.

As to A37G C73G U109A, the “polymerase ribozyme fitness (log ratio)” value is -7.2.

On to C13A G69U C72A G113A, for which the “polymerase ribozyme fitness (log ratio)” value is -1.88.

Take C73A C79U C86A C115U: the “polymerase ribozyme fitness (log ratio)” value was -3.26.

With U87G G113C, the “polymerase ribozyme fitness (log ratio)” value was -2.26.

For the variant A29U G63A, the “polymerase ribozyme fitness (log ratio)” value was -2.41.

In the case of C20U U21C U116C, the “polymerase ribozyme fitness (log ratio)” value was -2.85.

G69A G117U C124A: the “polymerase ribozyme fitness (log ratio)” value was -4.19.

Take C11U C13U A18G C56U U109A: the “polymerase ribozyme fitness (log ratio)” value was -4.43.

Turning to C11U C62G C89U A121C C124G U125A, the “polymerase ribozyme fitness (log ratio)” value is -0.483.

On to C8G G10U G36U, for which the “polymerase ribozyme fitness (log ratio)” value is -0.687.

On to C76G G77U, for which the “polymerase ribozyme fitness (log ratio)” value amounted to 0.0405.

As for G39C U54A G58U C114A, the “polymerase ribozyme fitness (log ratio)” value is -2.27.

C15A C72A: the “polymerase ribozyme fitness (log ratio)” value is -1.94.

Turning to G10A A27U G42A C70U C99A, the “polymerase ribozyme fitness (log ratio)” value was -6.56.

Turning to C3A C56A C89A C115U, the “polymerase ribozyme fitness (log ratio)” value was -3.79.

As to G61A C97U, the “polymerase ribozyme fitness (log ratio)” value was -0.149.

As for C8U U14G G60A C73U, the “polymerase ribozyme fitness (log ratio)” value is -0.213.

On to A75G C94G, for which the “polymerase ribozyme fitness (log ratio)” value is -1.19.

As for C64U A74C, the “polymerase ribozyme fitness (log ratio)” value is -0.717.

On to C64U U92C G113A G127U U131C, for which the “polymerase ribozyme fitness (log ratio)” value was -3.48.

On to G42U C72G C94U G120U U131A, for which the “polymerase ribozyme fitness (log ratio)” value was -2.67.

For the variant A18C U78A U112G G122U, the “polymerase ribozyme fitness (log ratio)” value is -4.43.

Consider C3A C13A C20A A66G G117A, for which the “polymerase ribozyme fitness (log ratio)” value was -5.73.

For the variant G69A C102A U112G U132A, the “polymerase ribozyme fitness (log ratio)” value was -5.6.

A29C A46U U54G U78C G120U: the “polymerase ribozyme fitness (log ratio)” value was -3.43.

With U7A G57U, the “polymerase ribozyme fitness (log ratio)” value was -0.259.

A43G C53A C89G C97G C123G: the “polymerase ribozyme fitness (log ratio)” value is -5.57.

Take A5C C62U: the “polymerase ribozyme fitness (log ratio)” value was -0.355.

U87G A119G: the “polymerase ribozyme fitness (log ratio)” value was 1.67.

As for C72G U92G, the “polymerase ribozyme fitness (log ratio)” value was -3.48.

Consider C8U U38G G61U G93A, for which the “polymerase ribozyme fitness (log ratio)” value was -4.11.

With G10A C97U, the “polymerase ribozyme fitness (log ratio)” value was -0.852.

Regarding G60U G93A C98G, the “polymerase ribozyme fitness (log ratio)” value was -6.44.

For the variant U7C G47A G69U C72A C102G, the “polymerase ribozyme fitness (log ratio)” value was -4.77.

As to U38G G44A G63C U96C, the “polymerase ribozyme fitness (log ratio)” value was -2.8.

In the case of G19U G45U A111C, the “polymerase ribozyme fitness (log ratio)” value is -4.74.

For G71A C94G, the “polymerase ribozyme fitness (log ratio)” value was -2.57.

Turning to C20G A43G C89A, the “polymerase ribozyme fitness (log ratio)” value was -3.78.

With A29C C102A U109G, the “polymerase ribozyme fitness (log ratio)” value was -2.1.

Regarding G39U C56G C72G U112C C124U, the “polymerase ribozyme fitness (log ratio)” value is -1.3.

As to U59A G77U, the “polymerase ribozyme fitness (log ratio)” value is -2.02.

With C72U U78C U106C G117A A118U U125G, the “polymerase ribozyme fitness (log ratio)” value is -5.09.

Turning to G71U A103C, the “polymerase ribozyme fitness (log ratio)” value is -5.76.

For C8U G113A A121G, the “polymerase ribozyme fitness (log ratio)” value was -0.604.

On to C8A C12G U14C G77C C101A, for which the “polymerase ribozyme fitness (log ratio)” value is -1.39.

For C4A C15G G47U C64U C115G A119U G120U G135U, the “polymerase ribozyme fitness (log ratio)” value is -7.19.

For the variant G61A C73A C123A, the “polymerase ribozyme fitness (log ratio)” value is -0.908.

As for C11G G39A C124A, the “polymerase ribozyme fitness (log ratio)” value was found to be 1.48.

As for G52C G58A, the “polymerase ribozyme fitness (log ratio)” value is -1.15.

With A108U G120U, the “polymerase ribozyme fitness (log ratio)” value was -5.29.
